Results from US20210079109A1 (Regeneron, published 2021).
Positions count from the first letter of the chain named. Blank lines part the entries; values can stand above or below the binder they belong to.

Tests used:
human CD63 [1] = target: T1, human CD63 (human, UniProt P08962 2-238); assay: ECL, NIH3T3/hCD63 cells
T1 construct: stably transfected in NIH3T3/hCD63; The cell line is named under assay; also called hCD63
T1 sequence: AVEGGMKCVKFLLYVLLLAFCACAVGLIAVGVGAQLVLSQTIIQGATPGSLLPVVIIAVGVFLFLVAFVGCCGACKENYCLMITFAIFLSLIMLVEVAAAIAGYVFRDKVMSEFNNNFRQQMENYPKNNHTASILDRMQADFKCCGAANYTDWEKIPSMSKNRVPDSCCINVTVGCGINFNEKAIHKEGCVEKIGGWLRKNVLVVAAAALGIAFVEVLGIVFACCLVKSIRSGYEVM
Protocol: (§1) LNCAP cells were determined to have a lower human CD63 copy number than U87MG cells. Non-transfected NIH3T3 cells, which have no detectable expression of human CD63 by fluorescence activated cell sorting (FACS), were included as a negative control.
(§2) Briefly, cell lines were rinsed once in PBS buffer without Ca²⁺/Mg²⁺ and incubated for 10 minutes at 37° C. with Enzyme Free Cell Dissociation Solution (Millipore, Cat #S-004-C) to detach the cells. Cells were then washed once with PBS with Ca²⁺/Mg²⁺ and counted with a Cellometer™ Auto T4 cell counter (Nexcelom Bioscience, LLC). Approximately 2.0×10⁴ NIH3T3/hCD63, LNCAP, U87MG or NIH3T3 cells were seeded separately onto 96-well carbon electrode plates […]) and were then incubated for one hour at 37° C. Nonspecific binding sites were blocked with 2% BSA (w/v) in PBS with Ca²⁺/Mg²⁺ for one hour at room temperature (RT). Solutions containing anti-CD63 antibodies or isotype control antibodies at a range of concentrations (1.7 pM to 100 nM) in 0.5% BSA (w/v) in PBS with Ca²⁺/Mg²⁺, as well as control buffer alone, were then added in duplicate to the plate-bound NIH3T3/hCD63, LNCAP, U87MG or NIH3T3 cells and incubated for one hour at RT. Plates were subsequently washed to remove unbound antibodies using an AquaMax2000 plate washer with a cell washing head (MDS Analytical Technologies). […] Plates were washed and then incubated with Read Buffer (MSD, Cat #R92TD-2) according to the manufacturer's instructions. Luminescent signals were measured using a SECTOR Imager (MSD).

[2] = target: T2, recombinant human CD63 extracellular loop 2 expressed with a C-terminal human Fc tag (human); assay: SPR Biacore, mAb captured, 25C
T2 construct: also called hCD63 EC loop 2-hFc; human CD63 EC loop 2-Fc
Protocol: (§3) Equilibrium dissociation constants (KD) for different CD63 (EC2) loop reagents binding to purified anti-CD63 monoclonal antibodies were determined using a real-time surface plasmon resonance based Biacore T200 biosensor or Biacore 2000 biosensor. All binding studies were performed in 10 mM HEPES, 150 mM NaCl, 3 mM EDTA, and 0.05% v/v Surfactant Tween-20, pH 7.4 (HBS-ET) running buffer at 25° C. and 37° C. The Biacore CMS sensor chip surface was first derivatized by amine coupling with either a rabbit anti-mouse Fc specific polyclonal antibody (GE Healthcare, Cat #BR100838) or an anti-human Fab kit (GE Healthcare, Cat #28958325) to capture anti-CD63 monoclonal antibodies. […] The association rate (Kₐ) and dissociation rate (kd) were determined by fitting the real-time binding sensorgrams to a 1:1 binding model with mass transport limitation using Scrubber 2.0c curve-fitting software. Binding dissociation equilibrium constant (KD) and dissociative half-life (t½) were calculated from the kinetic rates as: […]
(§4) Binding kinetics parameters for human CD63 EC loop 2 protein binding to different anti-CD63 monoclonal antibodies of the invention at 25° C. and 37° C. are shown in Tables 6 through 9.

[3] = target: T3, recombinant human CD63 extracellular loop 2 expressed with a C-terminal Myc-Myc-hexahistidine (human); assay: SPR Biacore, mAb captured, 25C
T3 construct: also called hCD63 EC loop 2-MMH; human CD63 EC loop 2-MMH
Protocol: as §3, §4

human CD63 [4] = target: T1, human CD63; assay: ECL, U87MG cells
Protocol: as §1, §2

human CD63 [5] = target: T1, human CD63; assay: ECL, LNCAP cells
Protocol: as §1, §2

[6] = target: T2, recombinant human CD63 extracellular …; assay: SPR Biacore, mAb captured, 37C
Protocol: as §3, §4

[7] = target: T3, recombinant human CD63 extracellular …; assay: SPR Biacore, mAb captured, 37C
Protocol: as §3, §4

T2 sequence (chain, as listed by the source limits assumed): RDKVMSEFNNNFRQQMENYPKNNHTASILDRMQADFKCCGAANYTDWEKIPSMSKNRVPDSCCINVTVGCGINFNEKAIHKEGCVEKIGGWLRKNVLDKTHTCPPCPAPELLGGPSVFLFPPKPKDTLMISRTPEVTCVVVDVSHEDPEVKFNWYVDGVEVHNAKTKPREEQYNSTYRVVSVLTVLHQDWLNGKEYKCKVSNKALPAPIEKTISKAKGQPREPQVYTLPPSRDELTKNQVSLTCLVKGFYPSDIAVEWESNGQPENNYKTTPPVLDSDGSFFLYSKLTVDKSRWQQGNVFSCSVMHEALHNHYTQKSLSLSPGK
T3 sequence (chain, as listed by the source limits assumed): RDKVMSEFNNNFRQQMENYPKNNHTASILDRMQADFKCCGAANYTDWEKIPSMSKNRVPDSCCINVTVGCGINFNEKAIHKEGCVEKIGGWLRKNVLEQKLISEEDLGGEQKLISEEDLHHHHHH

B2: H4H11996P2 (antibody, V domains shown)
VH: QVQLVESGGGLVKPGGSLRLSCAASGFIFTDYFMNWIRQAPGKGLEWVSYISNSGNILYYADSVKGRFTISRDNAKASLYLQMSSLKAEDTAVYYCVRDPRMFYGMDVWGQGTTVTVSS
VL: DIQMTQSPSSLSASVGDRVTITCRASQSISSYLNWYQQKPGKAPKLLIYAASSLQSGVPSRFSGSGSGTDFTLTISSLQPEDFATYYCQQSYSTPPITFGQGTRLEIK
EC50 (human CD63 [1]): 0.98 nM
binding ratio at 3.7 nM vs NIH3T3 (human CD63 [1]): 188 fold
100 nM Ag Bound (RU) [2]: 257 RU
Kd [2]: 0.292 nM
koff [2]: 0.000135 s⁻¹
kon [2]: 461000 M⁻¹ s⁻¹
t1/2 [2]: 86 min
100 nM Ag Bound (RU) [3]: 61 RU
Kd [3]: 84.9 nM
koff [3]: 0.014 s⁻¹
kon [3]: 165000 M⁻¹ s⁻¹
t1/2 [3]: 0.8 min
EC50 (human CD63 [4]): 8.1 nM
binding ratio at 3.7 nM vs NIH3T3 (human CD63 [4]): 57 fold
EC50 (human CD63 [5]): 4.4 nM
binding ratio at 3.7 nM vs NIH3T3 (human CD63 [5]): 7 fold
100 nM Ag Bound (RU) [6]: 294 RU
Kd [6]: 0.264 nM
koff [6]: 0.000142 s⁻¹
kon [6]: 538000 M⁻¹ s⁻¹
t1/2 [6]: 81 min
100 nM Ag Bound (RU) [7]: 46 RU
Kd [7]: 361 nM
koff [7]: 0.0389 s⁻¹
kon [7]: 108000 M⁻¹ s⁻¹
t1/2 [7]: 0.3 min

B3: H1M12362N (antibody, V domains shown)
VH: QVQLVESGGGLVKPGGSLRLSCAASGFIFSDYYINWIRQAPGKGLEWVSYTSSSGSTTYYEDSVKGRFTMSRDNARNLVYLQMNSLRAEDTAAYYCVRDLRYNDGLDVWGQGTTVTVSS
VL: DILLTQSPSSLSASVGDRVTITCRASQSIRTYLNWYQQKPGRAPKLLVYAASSLQSGVPSRFSGSGSGTDFTLTISSLQPEDFATYFCQQSYDNPPITFGQGTRLAIK
EC50 (human CD63 [1]): 0.63 nM
binding ratio at 3.7 nM vs NIH3T3 (human CD63 [1]): 283 fold
100 nM Ag Bound (RU) [2]: 125 RU
Kd [2]: 0.84 nM
koff [2]: 0.000399 s⁻¹
kon [2]: 477000 M⁻¹ s⁻¹
t1/2 [2]: 29 min
100 nM Ag Bound (RU) [3]: 51 RU
Kd [3]: 12.7 nM
koff [3]: 0.00144 s⁻¹
kon [3]: 113000 M⁻¹ s⁻¹
t1/2 [3]: 8 min
EC50 (human CD63 [4]): 0.56 nM
binding ratio at 3.7 nM vs NIH3T3 (human CD63 [4]): 174 fold
EC50 (human CD63 [5]): 0.57 nM
binding ratio at 3.7 nM vs NIH3T3 (human CD63 [5]): 16 fold
100 nM Ag Bound (RU) [6]: 118 RU
Kd [6]: 0.977 nM
koff [6]: 0.000669 s⁻¹
kon [6]: 685000 M⁻¹ s⁻¹
t1/2 [6]: 17 min
100 nM Ag Bound (RU) [7]: 32 RU
Kd [7]: 19.5 nM
koff [7]: 0.0072 s⁻¹
kon [7]: 369000 M⁻¹ s⁻¹
t1/2 [7]: 2 min

B5: H2M12387N (antibody, V domains shown)
VH: QVQLEESGGGVVKAGGSLRLSCAASGFTFSDYYMNWIRQAPGKGLEWVSYINNGGYTIYYADSVKGRFTMSRDNAKNSVYLQMNGLRAEDTAFYYCVRDPRSYYGFDYWGQGTLVIVSS
VL: DIQMTQSPSSLSASVGDRVTITCRASQSISRFLHWYQQKPGKAPKLLIYGASSLQSGVPSRFSGSGSGTDFTLTISSLQPEDFATYYCQQSYSTPPITFGQGTRLEIK
notes: also called H2aM12387N
EC50 (human CD63 [1]): 0.39 nM
binding ratio at 3.7 nM vs NIH3T3 (human CD63 [1]): 228 fold
100 nM Ag Bound (RU) [2]: 164 RU
Kd [2]: 0.129 nM
koff [2]: 0.00011 s⁻¹
kon [2]: 854000 M⁻¹ s⁻¹
t1/2 [2]: 105 min
100 nM Ag Bound (RU) [3]: 74 RU
Kd [3]: 0.994 nM
koff [3]: 0.00054 s⁻¹
kon [3]: 543000 M⁻¹ s⁻¹
t1/2 [3]: 21 min
EC50 (human CD63 [4]): 0.29 nM
binding ratio at 3.7 nM vs NIH3T3 (human CD63 [4]): 172 fold
EC50 (human CD63 [5]): 0.15 nM
binding ratio at 3.7 nM vs NIH3T3 (human CD63 [5]): 18 fold
100 nM Ag Bound (RU) [6]: 196 RU
Kd [6]: 0.596 nM
koff [6]: 0.000657 s⁻¹
kon [6]: 1.1e+06 M⁻¹ s⁻¹
t1/2 [6]: 18 min
100 nM Ag Bound (RU) [7]: 77 RU
Kd [7]: 5.21 nM
koff [7]: 0.00354 s⁻¹
kon [7]: 679000 M⁻¹ s⁻¹
t1/2 [7]: 3 min

B6: H3M12361N (antibody, V domains shown)
VH: EVQLVESGGGLVQPGRSLRLSCTASGFTFGDHAMHWVRQAPGKGLEGVSSINWNSGIIGYAESVKGRFTISRDNAKNSLYLQMNNLRAEDTGLYYCARDIGVATLGIDYWGQGTLVTVSS
VL: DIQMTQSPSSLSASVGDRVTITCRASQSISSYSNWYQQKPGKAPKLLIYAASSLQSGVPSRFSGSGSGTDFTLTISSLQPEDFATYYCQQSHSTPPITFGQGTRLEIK
EC50 (human CD63 [1]): 0.81 nM
binding ratio at 3.7 nM vs NIH3T3 (human CD63 [1]): 243 fold
100 nM Ag Bound (RU) [2]: 83 RU
Kd [2]: 0.299 nM
koff [2]: 0.000132 s⁻¹
kon [2]: 441000 M⁻¹ s⁻¹
t1/2 [2]: 87 min
100 nM Ag Bound (RU) [3]: 43 RU
Kd [3]: 3.12 nM
koff [3]: 0.000805 s⁻¹
kon [3]: 258000 M⁻¹ s⁻¹
t1/2 [3]: 14 min
EC50 (human CD63 [4]): 1.3 nM
binding ratio at 3.7 nM vs NIH3T3 (human CD63 [4]): 111 fold
EC50 (human CD63 [5]): 1.1 nM
binding ratio at 3.7 nM vs NIH3T3 (human CD63 [5]): 19 fold
100 nM Ag Bound (RU) [6]: 97 RU
Kd [6]: 0.568 nM
koff [6]: 0.00037 s⁻¹
kon [6]: 651000 M⁻¹ s⁻¹
t1/2 [6]: 31 min
100 nM Ag Bound (RU) [7]: 39 RU
Kd [7]: 5.85 nM
koff [7]: 0.00289 s⁻¹
kon [7]: 495000 M⁻¹ s⁻¹
t1/2 [7]: 4 min

Continued by falling EC50 (human CD63 [1]), values first:

EC50 (human CD63 [1]): 0.61 nM
binding ratio at 3.7 nM vs NIH3T3 (human CD63 [1]): 593 fold
100 nM Ag Bound (RU) [2]: 91 RU
Kd [2]: 1.87 nM
koff [2]: 0.000228 s⁻¹
kon [2]: 122000 M⁻¹ s⁻¹
t1/2 [2]: 51 min
100 nM Ag Bound (RU) [3]: 35 RU
Kd [3]: 7.33 nM
koff [3]: 0.000596 s⁻¹
kon [3]: 81300 M⁻¹ s⁻¹
t1/2 [3]: 19 min
EC50 (human CD63 [4]): 2 nM
binding ratio at 3.7 nM vs NIH3T3 (human CD63 [4]): 260 fold
EC50 (human CD63 [5]): 0.74 nM
binding ratio at 3.7 nM vs NIH3T3 (human CD63 [5]): 37 fold
100 nM Ag Bound (RU) [6]: 104 RU
Kd [6]: 1.1 nM
koff [6]: 0.000857 s⁻¹
kon [6]: 779000 M⁻¹ s⁻¹
t1/2 [6]: 13 min
100 nM Ag Bound (RU) [7]: 34 RU
Kd [7]: 6.98 nM
koff [7]: 0.00269 s⁻¹
kon [7]: 385000 M⁻¹ s⁻¹
t1/2 [7]: 4 min
B1: H2M12452N (antibody, V domains shown)
VH: QVQLQEAGPGLVKPSETLSLTCIVSGGSISGFYWNWIRQPPGKGLEWIGYFLYSGTIDYNPSLKSRVTISVDTSKNQFFLKLSFVTAADTAVYYCVRMGLGANAFDIWGRGTMVTVSS
VL: EIVLTQSPGTLSLSPGERATLSCRASQTVSRSFLAWYQQKPGQAPRLLIYGPSSRATGIPDRFSGSGSGTDFTLTISRLEPEDFAVYYCQQYGNSPWTFGQGTKVEIK
notes: also called H2aM12452N

EC50 (human CD63 [1]): 0.45 nM
binding ratio at 3.7 nM vs NIH3T3 (human CD63 [1]): 95 fold
100 nM Ag Bound (RU) [2]: 117 RU
Kd [2]: 0.61 nM
koff [2]: 0.00028 s⁻¹
kon [2]: 460000 M⁻¹ s⁻¹
t1/2 [2]: 41 min
100 nM Ag Bound (RU) [3]: 48 RU
Kd [3]: 13 nM
koff [3]: 0.00132 s⁻¹
kon [3]: 102000 M⁻¹ s⁻¹
t1/2 [3]: 9 min
EC50 (human CD63 [4]): 0.85 nM
binding ratio at 3.7 nM vs NIH3T3 (human CD63 [4]): 71 fold
EC50 (human CD63 [5]): 0.32 nM
binding ratio at 3.7 nM vs NIH3T3 (human CD63 [5]): 8 fold
100 nM Ag Bound (RU) [6]: 107 RU
Kd [6]: 1.01 nM
koff [6]: 0.000562 s⁻¹
kon [6]: 557000 M⁻¹ s⁻¹
t1/2 [6]: 21 min
100 nM Ag Bound (RU) [7]: 31 RU
Kd [7]: 21.5 nM
koff [7]: 0.00671 s⁻¹
kon [7]: 311000 M⁻¹ s⁻¹
t1/2 [7]: 2 min
B4: H2M13022N (antibody, V domains shown)
VH: B3 VH with K13Q, S30G, E46Q, R76K, T116I
VL: B3 VL with S14F, S28N, S53T, T85S
notes: also called H2bM13022N
